This is an account of results in PMC8763006.

The test has as its target glutathione S-transferase Pi 1 (GSTP1) (human (endogenous in 97H and Huh7)), P09211. Description: native gel or EMSA; total protein of 97H-PCSK9 and 97H-mock cells in nondenaturing, nonreducing buffer without boiling, PAGE gel without SDS; Western blot with anti-GSTP1. To be noted: remark: other sources report otherwise. Background: Mobility shift assays separate free from complexed probe on a gel.

B1: glutathione S-transferase Pi 1 (GSTP1), P09211 1-210 (natural protein)
chain: MPPYTVVYFPVRGRCAALRMLLADQGQSWKEEVVTVETWQEGSLKASCLYGQLPKFQDGDLTLYQSNTILRHLGRTLGLYGKDQQEAALVDMVNDGVEDLRCKYISLIYTNYEAGKDDYVKALPGQLKPFETLLSQNQGGKTFIVGDQISFADYNLLDLLLIHEVLAPGCLDAFPLLSAYVGRLSARPKLKAFLASPEYVNLPINGNGKQ
The molecule B1 registered a stoichiometry N of 2.

One may read the stoichiometry N as a count of units in the complex or per binding partner.
